According to article PMC5760199, “Structural insights into the assembly and polyA signal recognition mechanism of the human CPSF complex”:

Legend:
[1] = target: CPSF160FL;WDR33 M1-K410;CPSF30 ZF1-3 (Homo sapiens;Homo sapiens;Homo sapiens, UniProt Q10570;Q9C0J8;O95639-3 1-1443;1-410;1-117, ||); assay: fluorescence polarization; 20 mM Tris pH 7.5, 150 mM NaCl, 1 mM DTT, 0.05% Tween 20, 25 C, 0.1 nM labelled RNA; conditions: protein: recombinant;recombinant;recombinant; tags: His6 (438B vector; Ni-NTA and Streptactin purified);; copies: 1;1;1; label: 5' Atto532
[2] = target: CPSF160FL;WDR33 M1-K410;CPSF30 ZF1-5;Fip1CD (Homo sapiens;Homo sapiens;Homo …, UniProt Q10570;Q9C0J8;O95639-3;Q6UN15-4 1-1443;1-410;1-169;130-195, |||); assay: as above; conditions: protein: recombinant;recombinant;recombinant;recombinant; tags: His6 (438B vector; Ni-NTA and Streptactin purified);;; copies: 1;1;1;1; label: 5' Atto532
[3] = target: T1, CPSF160FL;WDR33 M1-K410;CPSF30FL;Fip1FL (Homo sapiens;Homo sapiens;Homo …, UniProt Q10570;Q9C0J8;O95639-3;Q6UN15-4 1-1443;1-410;1-243;1-378, |||); assay: fluorescence polarization; two repeats; 20 mM Tris pH 7.5, 150 mM NaCl, 1 mM DTT, 0.05% Tween 20, 25 C, 0.1 nM labelled RNA; conditions: protein: recombinant;recombinant;recombinant;recombinant; tags: His6 (438B vector; Ni-NTA and Streptactin purified);;; copies: 1;1;1;1; label: 5' Atto532
[4] = target: CPSF160FL;WDR33 M1-K410 R49A/K50A;CPSF30 ZF1-3 (Homo sapiens;Homo sapiens;Homo sapiens, UniProt Q10570;Q9C0J8;O95639-3 1-1443;1-410;1-117, |R49A;K50A|); assay: fluorescence polarization; 20 mM Tris pH 7.5, 150 mM NaCl, 1 mM DTT, 0.05% Tween 20, 25 C, 0.1 nM labelled RNA; conditions: protein: recombinant;recombinant;recombinant; tags: His6 (438B vector); copies: 1;1;1; label: 5' Atto532
[5] = target: CPSF160FL;WDR33 M1-K410 K46A/R47A;CPSF30 ZF1-3 (Homo sapiens;Homo sapiens;Homo sapiens, UniProt Q10570;Q9C0J8;O95639-3 1-1443;1-410;1-117, |K46A;R47A|); assay: as above; conditions: protein: recombinant;recombinant;recombinant; tags: His6 (438B vector); copies: 1;1;1; label: 5' Atto532
[6] = target: T1, CPSF160FL;WDR33 M1-K410;CPSF30FL;Fip1FL; assay: fluorescence polarization; error 0.09 in text, 0.90 in Table 2; 20 mM Tris pH 7.5, 150 mM NaCl, 1 mM DTT, 0.05% Tween 20, 25 C, 0.1 nM labelled RNA; conditions: protein: recombinant;recombinant;recombinant;recombinant; tags: His6 (438B vector; Ni-NTA and Streptactin purified);;; copies: 1;1;1;1; label: 5' Atto532

T1 sequence (Q10570 whole entry, chain 1 of 4): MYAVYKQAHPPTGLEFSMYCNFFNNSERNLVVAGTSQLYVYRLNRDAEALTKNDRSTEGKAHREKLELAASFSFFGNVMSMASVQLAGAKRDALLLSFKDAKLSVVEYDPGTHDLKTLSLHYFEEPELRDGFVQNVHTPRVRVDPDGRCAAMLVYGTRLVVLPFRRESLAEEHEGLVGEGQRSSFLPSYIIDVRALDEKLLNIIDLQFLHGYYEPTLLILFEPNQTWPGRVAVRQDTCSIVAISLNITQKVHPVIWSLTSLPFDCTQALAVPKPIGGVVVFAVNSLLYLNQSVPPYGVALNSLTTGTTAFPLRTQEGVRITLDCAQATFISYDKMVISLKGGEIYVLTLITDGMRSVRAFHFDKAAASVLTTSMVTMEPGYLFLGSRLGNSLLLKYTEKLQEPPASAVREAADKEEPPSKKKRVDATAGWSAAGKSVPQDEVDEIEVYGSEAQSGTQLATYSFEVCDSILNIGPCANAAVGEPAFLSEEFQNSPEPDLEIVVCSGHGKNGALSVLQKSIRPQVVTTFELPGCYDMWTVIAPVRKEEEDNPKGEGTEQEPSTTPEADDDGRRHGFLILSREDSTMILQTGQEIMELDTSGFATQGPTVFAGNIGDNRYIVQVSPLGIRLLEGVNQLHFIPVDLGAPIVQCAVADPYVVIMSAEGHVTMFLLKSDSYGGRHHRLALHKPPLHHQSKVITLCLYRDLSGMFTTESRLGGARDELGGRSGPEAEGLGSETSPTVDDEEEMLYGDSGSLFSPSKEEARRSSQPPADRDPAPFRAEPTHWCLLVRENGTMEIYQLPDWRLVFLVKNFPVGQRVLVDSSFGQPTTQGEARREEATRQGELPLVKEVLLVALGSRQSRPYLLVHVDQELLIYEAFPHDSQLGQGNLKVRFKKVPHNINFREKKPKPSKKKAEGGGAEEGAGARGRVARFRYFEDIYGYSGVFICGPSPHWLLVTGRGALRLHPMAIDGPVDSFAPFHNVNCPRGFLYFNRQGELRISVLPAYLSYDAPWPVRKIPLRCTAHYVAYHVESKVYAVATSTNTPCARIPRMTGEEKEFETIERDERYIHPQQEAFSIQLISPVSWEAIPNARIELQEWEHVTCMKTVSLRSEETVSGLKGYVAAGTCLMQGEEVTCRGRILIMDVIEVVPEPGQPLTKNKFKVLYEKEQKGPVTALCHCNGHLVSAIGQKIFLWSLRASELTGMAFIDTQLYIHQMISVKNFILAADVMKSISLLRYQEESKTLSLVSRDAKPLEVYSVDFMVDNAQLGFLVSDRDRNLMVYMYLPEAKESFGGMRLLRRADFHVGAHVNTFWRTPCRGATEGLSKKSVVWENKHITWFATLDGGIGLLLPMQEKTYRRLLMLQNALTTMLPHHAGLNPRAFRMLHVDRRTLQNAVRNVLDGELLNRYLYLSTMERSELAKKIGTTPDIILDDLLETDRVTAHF
T1 sequence (Q9C0J8 1-410, chain 2 of 4): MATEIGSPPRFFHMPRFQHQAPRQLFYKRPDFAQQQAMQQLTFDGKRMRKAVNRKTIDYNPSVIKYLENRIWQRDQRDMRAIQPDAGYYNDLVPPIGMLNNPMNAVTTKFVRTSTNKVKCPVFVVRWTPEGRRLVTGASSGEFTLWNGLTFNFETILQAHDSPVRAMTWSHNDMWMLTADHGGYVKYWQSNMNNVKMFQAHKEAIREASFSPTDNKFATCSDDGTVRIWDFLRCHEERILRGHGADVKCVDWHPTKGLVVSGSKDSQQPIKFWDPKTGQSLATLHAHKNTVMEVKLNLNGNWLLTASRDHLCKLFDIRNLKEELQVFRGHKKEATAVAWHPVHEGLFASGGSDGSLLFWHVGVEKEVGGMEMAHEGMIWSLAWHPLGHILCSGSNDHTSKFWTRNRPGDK
T1 sequence (O95639 other isoform, or with tags, fused parts or gaps |||, chain 3 of 4): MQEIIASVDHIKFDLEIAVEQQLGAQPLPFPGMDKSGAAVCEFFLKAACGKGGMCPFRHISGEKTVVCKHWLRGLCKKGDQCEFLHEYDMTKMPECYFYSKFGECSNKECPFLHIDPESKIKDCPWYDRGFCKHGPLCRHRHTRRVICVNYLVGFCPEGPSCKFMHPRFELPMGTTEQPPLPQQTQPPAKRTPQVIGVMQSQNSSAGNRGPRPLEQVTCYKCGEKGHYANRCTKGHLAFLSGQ
T1 sequence (Q6UN15 other isoform, or with tags, fused parts or gaps |||, chain 4 of 4): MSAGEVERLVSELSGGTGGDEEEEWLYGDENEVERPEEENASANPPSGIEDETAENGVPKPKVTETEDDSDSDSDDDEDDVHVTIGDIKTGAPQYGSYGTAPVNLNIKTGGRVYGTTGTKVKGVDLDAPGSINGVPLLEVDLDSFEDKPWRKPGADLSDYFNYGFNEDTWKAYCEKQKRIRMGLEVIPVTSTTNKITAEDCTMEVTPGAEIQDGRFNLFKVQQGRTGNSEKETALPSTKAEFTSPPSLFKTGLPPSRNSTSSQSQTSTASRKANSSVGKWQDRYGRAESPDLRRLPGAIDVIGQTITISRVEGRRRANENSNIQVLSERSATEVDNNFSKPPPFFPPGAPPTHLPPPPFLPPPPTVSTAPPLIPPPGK
CPSF160FL;WDR33 M1-K410;CPSF30 ZF1-3, sequence (Q10570 whole entry, chain 1 of 3): as the sequence (Q10570 whole entry, chain 1 of 4) above
CPSF160FL;WDR33 M1-K410;CPSF30 ZF1-3, sequence (Q9C0J8 1-410, chain 2 of 3): as the sequence (Q9C0J8 1-410, chain 2 of 4) above
CPSF160FL;WDR33 M1-K410;CPSF30 ZF1-3, sequence (O95639 1-117, chain 3 of 3): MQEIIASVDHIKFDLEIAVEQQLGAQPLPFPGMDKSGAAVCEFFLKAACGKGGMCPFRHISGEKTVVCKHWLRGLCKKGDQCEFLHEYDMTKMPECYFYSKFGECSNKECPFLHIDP
CPSF160FL;WDR33 M1-K410;CPSF30 ZF1-5;Fip1CD, sequence (Q10570 whole entry, chain 1 of 4): as the sequence (Q10570 whole entry, chain 1 of 4) above
CPSF160FL;WDR33 M1-K410;CPSF30 ZF1-5;Fip1CD, sequence (Q9C0J8 1-410, chain 2 of 4): as the sequence (Q9C0J8 1-410, chain 2 of 4) above
CPSF160FL;WDR33 M1-K410;CPSF30 ZF1-5;Fip1CD, sequence (O95639 1-169, chain 3 of 4): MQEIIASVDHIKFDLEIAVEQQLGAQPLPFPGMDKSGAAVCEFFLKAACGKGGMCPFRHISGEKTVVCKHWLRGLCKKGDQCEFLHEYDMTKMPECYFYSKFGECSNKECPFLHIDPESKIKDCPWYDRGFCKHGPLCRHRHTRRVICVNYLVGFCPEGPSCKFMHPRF
CPSF160FL;WDR33 M1-K410;CPSF30 ZF1-5;Fip1CD, sequence (Q6UN15 145-210, chain 4 of 4): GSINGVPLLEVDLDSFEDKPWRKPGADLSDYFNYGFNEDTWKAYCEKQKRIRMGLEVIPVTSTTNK
CPSF160FL;WDR33 M1-K410 R49A/K50A;CPSF30 ZF1-3, sequence (Q10570 whole entry, chain 1 of 3): as the sequence (Q10570 whole entry, chain 1 of 4) above
CPSF160FL;WDR33 M1-K410 R49A/K50A;CPSF30 ZF1-3, sequence (Q9C0J8 1-410 R49A/K50A, chain 2 of 3): as the sequence (Q9C0J8 1-410, chain 2 of 4) above, with R49A, K50A counted along it
CPSF160FL;WDR33 M1-K410 R49A/K50A;CPSF30 ZF1-3, sequence (O95639 1-117, chain 3 of 3): as the sequence (O95639 1-117, chain 3 of 3) above
CPSF160FL;WDR33 M1-K410 K46A/R47A;CPSF30 ZF1-3, sequence (Q10570 whole entry, chain 1 of 3): as the sequence (Q10570 whole entry, chain 1 of 4) above
CPSF160FL;WDR33 M1-K410 K46A/R47A;CPSF30 ZF1-3, sequence (Q9C0J8 1-410 K46A/R47A, chain 2 of 3): as the sequence (Q9C0J8 1-410, chain 2 of 4) above, with K46A, R47A counted along it
CPSF160FL;WDR33 M1-K410 K46A/R47A;CPSF30 ZF1-3, sequence (O95639 1-117, stated change not applied, chain 3 of 3): as the sequence (O95639 1-117, chain 3 of 3) above

For CACACAAGAAAGGCAA (ssRNA) [L3 PAS RNA mutant (AAGAAA)], the Kd [1] was 43 ± 2 nM, the Kd [2] was 70 ± 6 nM and the Kd [3] was 120 ± 23 nM.

In the case of CACACAAUAAAGGCAA (ssRNA) [L3 PAS RNA wild-type (AAUAAA)], the Kd [1] is reported as under 0.1 nM, the Kd [2] is reported as 0.11 ± 0.03 nM and the Kd [4] is reported as 2.42 ± 0.66 nM. It also gave a Kd [5] of 7.78 ± 0.78 nM and a Kd [6] of 0.65 ± 0.09 nM.
